Results as given in patent US20140302035A1 (MERRIMACK PHARMACEUTICALS, published 2014).

B1: Onartuzumab-23 (antibody)
heavy: EVQLVESGGGLVQPGGSLRLSCAASGYTFTSYWLHWVRQAPGKGLEWVGMIDPSNSDTRFNPNFKDRFTISADTSKNTAYLQMNSLRAEDTAVYYCATYRSYVTPLDYWGQGTLVTVSSASTKGPSVFPLAPSSKSTSGGTAALGCLVKDYFPEPVTVSWNSGALTSGVHTFPAVLQSSGLYSLSSVVTVPSSSLGTQTYICNVNHKPSNTKVDKKVEPKSCDKTHTCPPCPAPELLGGPSVFLFPPKPKDTLMISRTPEVTCVVVDVSHEDPEVKFNWYVDGVEVHNAKTKPREEQYQSTYRVVSVLTVLHQDWLNGKEYKCKVSNKALPAPIEKTISKAKGQPREPQVYTLPPSREEMTKNQVSLSCAVKGFYPSDIAVEWESNGQPENNYKTTPPVLDSDGSFFLVSKLTVDKSRWQQGNVFSCSVMHEALHNHYTQKSLSLSPGKGGGGSGGGGSGGGGSGGGGSGGGGSGGGGSGGGGSGGGGSCPPCPAPELLGGPSVFLFPPKPKDTLMISRTPEVTCVVVDVSHEDPEVKFNWYVDGVEVHNAKTKPREEQYQSTYRVVSVLTVLHQDWLNGKEYKCKVSNKALPAPIEKTISKAKGQPREPQVYTLPPSREEMTKNQVSLWCLVKGFYPSDIAVEWESNGQPENNYKTTPPVLDSDGSFFLYSKLTVDKSRWQQGNVFSCSVMHEALHNHYTQKSLSLSPGK
light: DIQMTQSPSSLSASVGDRVTITCKSSQSLLYTSSQKNYLAWYQQKPGKAPKLLIYWASTRESGVPSRFSGSGSGTDFTLTISSLQPEDFATYYCQQYYAYPWTFGQGTKVEIKRTVAAPSVFIFPPSDEQLKSGTASVVCLLNNFYPREAKVQWKVDNALQSGNSQESVTEQDSKDSTYSLSSTLTLSKADYEKHKVYACEVTHQGLSSPVTKSFNRGEC
notes: Monovalent tandem Fc antibody: onartuzumab anti-c-Met Fab on IgG1 TFc 23
B2: Onartuzumab-39 (antibody)
heavy: EVQLVESGGGLVQPGGSLRLSCAASGYTFTSYWLHWVRQAPGKGLEWVGMIDPSNSDTRFNPNFKDRFTISADTSKNTAYLQMNSLRAEDTAVYYCATYRSYVTPLDYWGQGTLVTVSSASTKGPSVFPLAPSSKSTSGGTAALGCLVKDYFPEPVTVSWNSGALTSGVHTFPAVLQSSGLYSLSSVVTVPSSSLGTQTYICNVNHKPSNTKVDKKVEPKSCDKTHTCPSCPAPEFLGGPSVFLFPPKPKDTLMISRTPEVTCVVVDVSQEDPEVQFNWYVDGVEVHNAKTKPREEQFNSKYRVVSVLTVLHQDWLNGKEYKCKVSNKGLPSSIEKTISKAKGQPREPQVYTLPPSREEMTKNQVSLSCAVKGFYPSDIAVEWESNGQPENNYKTTPPVLDSDGSFFLVSKLTVDKSRWQQGNVFSCSVMHEALHNHYTQKSLSLSPGKGGGGSGGGGSGGGGSGGGGSGGGGSGGGGSGGGGSGGGGSCPSCPAPEFLGGPSVFLFPPKPKDTLMISRTPEVTCVVVDVSQEDPEVQFNWYVDGVEVHNAKTKPREEQFNSKYRVVSVLTVLHQDWLNGKEYKCKVSNKGLPSSIEKTISKAKGQPREPQVYTLPPSREEMTKNQVSLWCLVKGFYPSDIAVEWESNGQPENNYKTTPPVLDSDGSFFLYSKLTVDKSRWQQGNVFSCSVMHEALHNHYTQKSLSLSPGK
light: DIQMTQSPSSLSASVGDRVTITCKSSQSLLYTSSQKNYLAWYQQKPGKAPKLLIYWASTRESGVPSRFSGSGSGTDFTLTISSLQPEDFATYYCQQYYAYPWTFGQGTKVEIKRTVAAPSVFIFPPSDEQLKSGTASVVCLLNNFYPREAKVQWKVDNALQSGNSQESVTEQDSKDSTYSLSSTLTLSKADYEKHKVYACEVTHQGLSSPVTKSFNRGEC
notes: Monovalent tandem Fc antibody: onartuzumab anti-c-Met Fab on IgG1/IgG4 hybrid TFc 39
B3: Onartuzumab-39EGY4-2224 (bispecific antibody)
heavy: EVQLVESGGGLVQPGGSLRLSCAASGYTFTSYWLHWVRQAPGKGLEWVGMIDPSNSDTRFNPNFKDRFTISADTSKNTAYLQMNSLRAEDTAVYYCATYRSYVTPLDYWGQGTLVTVSSASTKGPSVFPLAPSSKSTSGGTAALGCLVKDYFPEPVTVSWNSGALTSGVHTFPAVLQSSGLYSLSSVVTVPSSSLGTQTYICNVNHKPSNTKVDKKVEPKSCDKTHTCPSCPAPEFLGGPSVFLFPPKPKDTLMISRTPEVTCVVVDVSQEDPEVQFNWYVDGVEVHNAKTKPREEQFNSKYRVVSVLTVLHQDWLNGKEYKCKVSNKGLPSSIEKTISKAKGQPREPQVYTLPPSREEMTKNQVSLSCAVKGFYPSDIAVEWESNGQPENNYKTTPPVLDSDGSFFLVSKLTVDKSRWQQGNVFSCSVMHEALHNHYTQKSLSLSKSCDKTGGGGSGGGGSGGGGSGGGGSGGGGSGGGGSGGGGSGGGGSCPSCPAPEFLGGPSVFLFPPKPKDTLMISRTPEVTCVVVDVSQEDPEVQFNWYVDGVEVHNAKTKPREEQFNSDYRVVSVLTVLHQDWLNGKEYKCKVSNKGLPSSIEKTISKAKGQPREPQVYTLPPSREEMTKNQVSLWCLVKGFYPSDIAVEWESNGQPENNYKTTPPVLDSDGSFFLYSKLTVDKSRWQQGNVFSCSVMHEALHNHYTQKSLSLSGECGGGGSGGGGSEVQLVQSGAEVKKPGSSVKVSCKASGGTFSSYAIGWVRQAPGQGLEWMGGIIPIFGIANYAQKFQGRVTITADESTSSAYMELSSLRSEDTAVYYCAREEGPYCSSTSCYAAFDIWGQGTLVTVSSASTGGGGSGGGGSGGGGSGGGGSQSVLTQDPAVSVALGQTVKITCQGDSLRSYFASWYQQKPGQAPTLVMYARNDRPAGVPDRFSGSKSGTSASLAISGLQPEDEADYYCAAWDDSLNGYLFGAGTKLTVL
light: DIQMTQSPSSLSASVGDRVTITCKSSQSLLYTSSQKNYLAWYQQKPGKAPKLLIYWASTRESGVPSRFSGSGSGTDFTLTISSLQPEDFATYYCQQYYAYPWTFGQGTKVEIKRTVAAPSVFIFPPSDEQLKSGTASVVCLLNNFYPREAKVQWKVDNALQSGNSQESVTEQDSKDSTYSLSSTLTLSKADYEKHKVYACEVTHQGLSSPVTKSFNRGEC
notes: Anti-c-Met Fab / TFc 39E glycoform 4 / anti-EGFR 2224 scFv; also called Onartuzumab-39EGY4-224; onartuzumab-39Egy-2224
B4: Onartuzumab-39EGY4-cetuximab (bispecific antibody)
heavy: EVQLVESGGGLVQPGGSLRLSCAASGYTFTSYWLHWVRQAPGKGLEWVGMIDPSNSDTRFNPNFKDRFTISADTSKNTAYLQMNSLRAEDTAVYYCATYRSYVTPLDYWGQGTLVTVSSASTKGPSVFPLAPSSKSTSGGTAALGCLVKDYFPEPVTVSWNSGALTSGVHTFPAVLQSSGLYSLSSVVTVPSSSLGTQTYICNVNHKPSNTKVDKKVEPKSCDKTHTCPSCPAPEFLGGPSVFLFPPKPKDTLMISRTPEVTCVVVDVSQEDPEVQFNWYVDGVEVHNAKTKPREEQFNSKYRVVSVLTVLHQDWLNGKEYKCKVSNKGLPSSIEKTISKAKGQPREPQVYTLPPSREEMTKNQVSLSCAVKGFYPSDIAVEWESNGQPENNYKTTPPVLDSDGSFFLVSKLTVDKSRWQQGNVFSCSVMHEALHNHYTQKSLSLSKSCDKTGGGGSGGGGSGGGGSGGGGSGGGGSGGGGSGGGGSGGGGSCPSCPAPEFLGGPSVFLFPPKPKDTLMISRTPEVTCVVVDVSQEDPEVQFNWYVDGVEVHNAKTKPREEQFNSDYRVVSVLTVLHQDWLNGKEYKCKVSNKGLPSSIEKTISKAKGQPREPQVYTLPPSREEMTKNQVSLWCLVKGFYPSDIAVEWESNGQPENNYKTTPPVLDSDGSFFLYSKLTVDKSRWQQGNVFSCSVMHEALHNHYTQKSLSLSGECGGGGSGGGGSQVQLVESGGGVVQPGESLRISCAVSGFSLTNYGVHWVRQAPGKGLEWLGVIWSGGNTDYNTPFTSRLTISKDNSKSTVYFQMNSLRAEDTAVYYCARALTYYDYEFAYWGQGTLVTVSSASTGGGGSGGGGSGGGGSGGGGSDIVLTQSPSSLSVTPGEKVTFTCRASQSIGTNIHWYQQKPGQSPKLLIKYASESISGVPSRFSGSGSGTDFTLTINSVEAEDAATYYCQQNNNWPTTFGQGTKLEIK
light: DIQMTQSPSSLSASVGDRVTITCKSSQSLLYTSSQKNYLAWYQQKPGKAPKLLIYWASTRESGVPSRFSGSGSGTDFTLTISSLQPEDFATYYCQQYYAYPWTFGQGTKVEIKRTVAAPSVFIFPPSDEQLKSGTASVVCLLNNFYPREAKVQWKVDNALQSGNSQESVTEQDSKDSTYSLSSTLTLSKADYEKHKVYACEVTHQGLSSPVTKSFNRGEC
notes: Anti-c-Met Fab / TFc 39E glycoform 4 / anti-EGFR cetuximab scFv

Target: T1, cMet-his (Homo sapiens (Human), UniProt P08581 25-933)
T1 construct: also called his tagged cMET; Recombinant polyhistidine-tagged c-Met
Test: BLI (ForteBio Octet), antibody loaded on Protein A tips, his tagged cMET in solution, 1:1 model
Procedure: Protocol: All reagents are equilibrated and samples are brought to room temperature. Protein A sensor tips (Fortebio, #18-5010) are hydrated for 10 min in 1×PBS. Kinetic assays are run using the Octet software and procedure per manufacturer's instruction. Assay steps typically include: 1-2 min of equilibration in 1×PBS, 4 min of antibody loading (conc: 50 μg/mL in 1×PBS), 1-2 min of baseline stabilization, 4 min of antibody:antigen association, and 4 min of antibody:antigen dissociation. 1×PBS is used as the matrix throughout. Data are analyzed with Octet Data Analysis software, processed, and fit to the curve using 1:1 binding model to determine kinetic parameters (Kₐ, Kₒₙ and Koff)

Binder	Kd
B1	1.24 nM
B2	1.26 nM
B3	1.29 nM
B4	0.9 nM
